Reference: patent US20170173105A1, “AUTOASSEMBLING PEPTIDES FOR THE TREATMENT OF PULMONARY LEAKAGE” (3-D MATRIX, LTD., priority 2014, published 2017)

Legend:
Assay type in all cases: physicochemical
[1] = pH and appearance of 2.5% peptide solutions after adding 0.1 N NaOH; details: for apparent stiffness on pH increase / color of solution on pH increase: pH increase up to approximately 3.5 or less with 0.1 N NaOH, 2.5% solutions
Procedure: To adjust the pH level of the peptide solutions by way of example, 0.1 N NaOH was added to 2 mL of 2.5% peptide solutions and their pH and appearance were measured.

[2] = Gelation kinetics of pH adjusted peptides, time sweep with DMEM added
Procedure: The effect of pH level on the properties of gelation kinetics was evaluated to identify optimized pH levels for the peptides as described herein. Fast gelation kinetics of PuraMatrix® and other peptides within body fluid may generally improve its function and response time for various clinical applications. The pH level may impart response time to begin gelation when treated with simulated body fluid including but not limited to DMEM. […] A fast response time of PuraMatrix® and other peptides within body fluid may generally improve its function and response time for various clinical applications.
(§1) Time sweep tests were performed at 1 rad/sec and at 1 Pa with 20 mm plates and 500 μm gap distance. During time sweep test of PuraMatrix® 2.5% solution, DMEM was added into the chamber surrounding the measuring plates to soak PuraMatrix® solution at 0 time point. The results are shown in FIG. 9A for PuraMatrix® 2.5% solution.
as §1, with “IEIK13 1.5%” for “PuraMatrix® 2.5%”, “IEIK13 1.5%” for “PuraMatrix®”, “point and continuously data was recorded.” for “point.”, “9B” for “9A”

[3] = Rheological properties of peptide solutions and hydrogels after salt ionic strength adjustment; details: for appearance of peptide solutions with salt and pH adjustment: 0.9% NaCl (ionic strength: 0.15 M) at pH 3.4 adjusted with NaOH; for rheological property of hydrogels after DMEM treatment at various ionic strengths: 1% hydrogels, DMEM treatment for 10 min; for rheological property of 1% solutions at various salt ionic strengths: 1% solution, storage modulus at 1 rad/sec; for rheological property of solutions after ionic strength adjustment with NaCl: NaCl to 0.7 M (PuraMatrix®), 0.2 M (KLD12) or 0.02 M (IEIK13), 1% solutions
Procedure: Based on the visual observation of the effect of salt ionic strength on the properties of the peptide solutions, the effect on the rheological properties of the peptide solutions after adjusting their ionic strength level with NaCl to 0.7 M (PuraMatrix®), 0.2 M (KLD12) or 0.02 M (IEIK13), which is closely below the critical ionic strength at which each peptide becomes cloudy, was evaluated. If the ionic strength levels with NaCl of peptide solutions are higher than 0.9 M (PuraMatrix®), 0.3 M (KLD12) or 0.03 M (IEIK13), the peptide solution begin phase separation becoming cloudy and weak. The rheological property of PuraMatrix®, KLD12 and IEIK13 solutions was higher after adjusting their ionic strength level with NaCl to 0.7 M (PuraMatrix®), 0.2 M (KLD12) or 0.02 M (IEIK13), The results are shown in FIG. 10 for KLD12 1%, FIG. 11 for IEIK13 1%, and FIG. 12 for PuraMatrix® 1%, respectively. Frequency sweep tests were performed from 1 rad/s to 10 rad/s at 1 Pa.
Based on the results of the effect on the rheological properties of the peptide solutions after adjusting their ionic strength level with NaCl to 0.7 M (PuraMatrix®), 0.2 M (KLD12) or 0.02 M (IEIK13), the effect on the rheological properties of the peptide solution at various salt ionic strengths was evaluated. […] The results are shown in FIG. 13 for PuraMatrix® 1% solution and in FIG. 14 for IEIK13 1% solution. Frequency sweep tests were performed from 1 rad/sec to 10 rad/sec at 1 Pa and the storage modulus at 1 rad/sec was selected for data.
Based on the results of the effect on the rheological properties of the peptide solutions after adjusting their ionic strength levels, the effect on the rheological properties of the peptide hydrogels after DMEM treatment for 10 min was evaluated. […] The results are shown in FIG. 15 for PuraMatrix® 1% hydrogels and in FIG. 16 for IEIK13 1% hydrogels, both after DMEM treatment for 10 min Frequency sweep tests were performed from 1 rad/sec to 10 rad/sec at 1 Pa and the storage modulus at 1 rad/sec was selected for data.
Based on the results of the effect on the rheological properties of the peptide solutions and hydrogels after adjusting their ionic strength levels with NaCl, the effect of various salts (KCl, MgCl2, and CaCl2) was also evaluated. The rheological property of PuraMatrix® solutions increases with ionic strength adjustment at 0.15 M of all the salts. Increases of the rheological property of PuraMatrix® solutions with various salts were not predominantly different. However, increases of the rheological property of PuraMatrix® solutions may vary depending on the salting out constant, K of each salt. Constant K is a constant in Cohen's equation: log S=B−KI, where S is solubility, B is idealized solubility, K is salting out constant, and I is ionic strength. With a higher value of constant K and ionic strength of salts, solubility of the peptide may decrease resulting in strong peptide self-assembly with increased hydrophobic effect and higher rheological properties of the peptide solution. The constant K of NaCl may be higher than the other salts. […] The results are shown in FIG. 17 for PuraMatrix® 1% solution before DMEM treatment, and in FIG. 18 for PuraMatrix® 1% hydrogels after DMEM treatment for 10 min.
In accordance with one or more embodiments, IEIK13, KLD12, and PuraMatrix® may be dissolved both in salt buffer such as NaCl and at an elevated pH level adjusted with alkali salt buffer such as NaOH to keep their salt ionic strength under their critical salt points as well as their pH level to about 2.5˜4.0, so that they may have stiffer properties. With respect to PuraMatrix®, […] and IEIK13, the peptide solutions are still clear with 0.9% NaCl (ionic strength: 0.15 M) at pH 3.4 adjusted with NaOH. […] The effect of salt ionic strength and pH adjustment on the rheological properties of PuraMatrix® 2.5% solution are shown in FIG. 20. […]

[4] = Gelation of peptide solutions on saline buffer treatment (time sweep); details: saline buffer (0.15 M of NaCl); IEIK13 1.5%, KLD12 1.5%, PuraMatrix 2.5%
Procedure: The effect of salt ionic strength level surrounding peptide solution on the properties of peptide solutions was evaluated to identify the possibility of peptide gelation when the peptide solution is placed into the environment where salt ionic strength level is high. […] Without pH effect, the effect of saline treatment on gelation of peptide solutions were evaluated. […] This is because IEIK13 is much more sensitive to salt ionic strength levels. Fast gelation of IEIK13 at the salt ionic strength level similar to body fluid isotonic salt level may generally improve its function and gelation speed for various clinical applications. The results are shown in FIG. 19 for IEIK13, KLD12 and PuraMatrix® solutions. Time sweep tests were performed at 1 rad/sec and at 1 Pa with 20 mm plates and 500 μm gap distance. […]

[5] = 0.1 N NaOH 0 μL/mL added in 2.5% solution, conc. 2.5%
[6] = 0.1 N NaOH 50 μL/mL added in 2.5% solution, conc. 2.38%
[7] = 0.1 N NaOH 100 μL/mL added in 2.5% solution, conc. 2.27%
[8] = 0.1 N NaOH 150 μL/mL added in 2.5% solution, conc. 2.17%
[9] = 0.1 N NaOH 200 μL/mL added in 2.5% solution, conc. 2.08%
[10] = 0.1 N NaOH 250 μL/mL added in 2.5% solution, conc. 2.0%
[11] = 0.1 N NaOH 275 μL/mL added in 2.5% solution, conc. 1.96%
[12] = 0.1 N NaOH 300 μL/mL added in 2.5% solution, conc. 1.92%
[13] = 0.1 N NaOH 350 μL/mL added in 2.5% solution, conc. 1.85%
[14] = last line per peptide, NaOH volume and conc. not given
[15] = with pH adjustment, PuraMatrix 2.5%, IEIK13 1.5% solution

Row | Substance | Appearance [1, 5] | Peptide solution pH [1, 5] | Appearance [1, 6] | Peptide solution pH [1, 6] | Appearance [1, 7] | Peptide solution pH [1, 7] | Peptide solution pH [1, 8] | Peptide solution pH [1, 9] | Peptide solution pH [1, 10] | Peptide solution pH [1, 11] | Peptide solution pH [1, 12] | Peptide solution pH [1, 13] | Peptide solution pH [1, 14] | apparent stiffness on pH increase [1] | color of solution on pH increase [1] | storage modulus response after DMEM addition [2, 15] | appearance of peptide solutions with salt and pH adjustment [3] | ionic strength level with NaCl at which the peptide solution begins phase separation becoming cloudy and weak [3] | rheological property of solutions after ionic strength adjustment with NaCl [3] | gelation after saline buffer treatment [4] | also measured
1 | Arg-Ala-Asp-Ala-Arg-Ala-Asp-Ala-Arg-Ala-Asp-Ala-Arg-Ala-Asp-Ala [PuraMatrix ®] | Clear, thick gel | 2.2 | Clear, thick gel | 2.3 | Clear, thick gel | 2.4 | 2.7 | 2.9 | 3.2 | 3.4 | 3.6 | 4.5 | 7.0 | increased | did not change the clear color | immediate storage modulus increase | still clear | higher than 0.9 M | higher | no or negligible gelation | initial time without storage modulus increase after DMEM addition ([2]; without pH adjustment (pH 2.2), 2.5% solution): 13 s; rheological property of solutions with NaCl compared with KCl and CaCl2 ([3]; 0.15 M ionic strength, 1%): slightly higher; rheological property of hydrogels after DMEM treatment at various ionic strengths [3]: increased with ionic strength adjustment up to 0.7 M, while decreases above 0.7 M; rheological property of 1% solutions at various salt ionic strengths [3]: increases with ionic strength adjustment up to 0.7 M, while decreases above 0.7 M; rheological property with salt and pH adjustment ([3]; 2.5% solution, 0.9% NaCl (0.15 M) at pH 3.4 vs control and only NaCl 0.9%): stiffer; gelation with DMEM treatment ([3]; above 0.9 M of NaCl ionic strength): no gelation; rheological property of solutions with various salts ([3]; ionic strength adjustment at 0.15 M of all the salts (NaCl, KCl, MgCl2, CaCl2), 1%): increases
2 | Ile-Glu-Ile-Lys-Ile-Glu-Ile-Lys-Ile-Glu-Ile-Lys-Ile [IEIK13] | Clear, thick gel | 1.8 | Clear, thick gel | 2.1 | Clear, thick gel | 2.2 | 2.7 | 3.0 | 3.3 | 3.7 | 4.0 | 4.5 | 7.0 | increased | did not change the clear color | immediate storage modulus increase | still clear | > 0.03 M | higher | fast gelation | Appearance [1, 13]: Cloudy, brittle gel; Peptide solution pH ([1]; 0.1 N NaOH 400 μL/mL added in 2.5% solution, conc. 1.79%): 5.4; storage modulus response after DMEM addition ([2]; without pH adjustment, 1.5% solution): immediate storage modulus increase; rheological property of hydrogels after DMEM treatment at various ionic strengths [3]: did not significantly change with ionic strength adjustment up to 0.025 M, while decreases above 0.03 M; rheological property of 1% solutions at various salt ionic strengths [3]: increases with ionic strength adjustment up to 0.03 M, while decreases above 0.03 M
3 | Lys-Leu-Asp-Leu-Lys-Leu-Asp-Leu-Lys-Leu-Asp-Leu (Ac-KLDLKLDLKLDL-NH2) [KLD12] | Clear, thick gel | 2.1 | Clear, thick gel | 2.4 | Clear, thick gel | 2.6 | 2.9 | 3.3 | 4.0 | – | 4.7 | 5.2 | 7.0 | increased | did not change the clear color | – | still clear | > 0.3 M | higher | no or negligible gelation | Peptide solution pH ([1]; 0.1 N NaOH 225 μL/mL added in 2.5% solution, conc. 2.04%): 3.6; Appearance [1, 12]: Cloudy, brittle gel
